Our source for the binding signal (% polarization change (DPC)) values is PMC9655642.

This series concerns alpha-CTD (RNA polymerase alpha subunit C-terminal domain) (Bacillus licheniformis B1391). In words: fluorescence polarization. The conditions noted are these: FP: 25 mM Tris-HCl, 3 mM NaCl, 3 mM MgCl2, 0.1 mM DTT, room temp 20 min, 100 nM probe, 30 ug protein in 100 uL; EMSA: 10 nM probe, 25 C 20 min; footprinting: …. For orientation: Polarisation of emitted light reports the rotation of a fluorescent probe.

As for “PtrxA-UP5-5D (five distal subsite repeats)”, the binding signal (% polarization change (DPC)) worked out at 35.

As to “PtrxA-UP5-5P (five proximal subsite repeats)”, the binding signal (% polarization change (DPC)) is 52.
